The record followed here is patent US20160251695.

For series [1], the target named is T1, α-fructosyl-valyl-histidyl-leucyl-threonyl-proryl-glutamic acid.
T1 chain: VHLTPE

Series [2] concerns the target T2, α-fructosyl-valyl-histidine.
T2 chain: VH

Residue numbers refer to the chain shown, from its start.

hemoglobin A1c, P68871, sequence (P68871 2-147, chain 1 of 2): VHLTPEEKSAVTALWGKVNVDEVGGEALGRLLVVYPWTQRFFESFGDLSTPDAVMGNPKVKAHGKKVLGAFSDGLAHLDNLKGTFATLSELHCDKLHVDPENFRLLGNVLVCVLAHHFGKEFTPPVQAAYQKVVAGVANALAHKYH
hemoglobin A1c, P68871, sequence (chain, as listed by the source, chain 2 of 2): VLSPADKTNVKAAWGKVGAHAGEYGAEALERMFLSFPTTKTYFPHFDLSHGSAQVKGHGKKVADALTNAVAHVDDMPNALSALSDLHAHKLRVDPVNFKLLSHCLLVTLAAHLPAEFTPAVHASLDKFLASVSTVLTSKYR

B1: EFP-T5-62D/63H/106K/110L/113K/355S (protein)
chain: MAHSRASTKVVVVGGGGTIGSSTALHLIRSGYTPSNITVLDVYKTPSLQSAGHDLNKIMGIDHRNGPDLQLSLESLDMWQNDELFKPFFHQVGMIDCSSSKEGIEKLRRLYQKLLDAGIGLEKTNVWLESEDEILAKAPNFTREQVKGWKGLFCTDGGWLAAAKAINAIGIFLQDKGVKFGFGDAGTFQQPLFAADGKTCIGLETTDGTKYFADKVVLAAGAWSPTLVDLEDQCVSKAWVFAHIQLTPKEADAYKNVPVVYDGEYGFFFEPDEYGVIKVCDEFPGFSRFKLHQPYGAASPKMISVPRSHAKHPTDTYPDASEVTIRKAIARFLPEFKDKELFNRTMCWCTDTADSNLLICEHPKWKNFILATGDSGHSFKLLPNIGKYVVELLEGSLSQEMAGAWRWRPGGDALRSRRGAPAKDLAEMPGWKHDAHL
Turning to B1, the “ΔA at 751 nm against HbA1c concentration; acid-treated sample (Reagent D1, Reagent F2)” value with hemoglobin A1c, P68871 was “Amadoriase 28 from EFP-T5 exhibiting high specific activity on αF6P was also found to act directly on HbA1c (FIG. 6-3)”. The protein further displayed a Specific activity (U/mg), 1 mM αF6P in series [1] of 1.12 U/mg.

B2: CFP-T7 (protein)
chain: MTSNRADTRVIVVGGGGTIGSSTALHLVRSGYAPANITVLDTFEIPSAQSAGHDLNKIMGIRLRNKVDLQMSLEARQMWKEDELFQPFFHNTGRMDCEHTPEGIEDLKKQYQALHDAGAGLEKTHAWLDNEDEILSKMPLLQRDQIQGWKAIWSQDGGWLAAAKAINAIGQFLKERGVKFGFGGAGSFKQPLFDDEGTTCIGVETADGTKYYADKVVLAAGAWSPTLVDLEDQCCSKAWVYAHIQLTPEEAAEYKGVPVVYNGEFGFFFEPDEFGVIKVCDEFPGFSRFKEHQPYGAPSPKRISVPRSHAKHPTDTYPDASEVSIKKAIATFLPRFQDKELFNRALCWCTDTADAALLMCEHPKWKNFILATGDSGHSFKILPNVGKYVVELIEGRLPEEMAYQWRWRPGGDALKSRRAAPPKDLADMPGWKHDPKL
In the case of B2, in the series with hemoglobin A1c, P68871, the “ΔA at 751 nm (hydrogen peroxide generated upon oxidation of the HbA1c β-chain amino terminus) against HbA1c concentration; heat-treated sample” value was “When Reagent C2 was used, however, no correlation was observed between the HbA1c concentration and ΔA”. Moreover, in series [2], the Specific activity (U/mg), 1 mM αFVH was 16.5 U/mg; the αFVH oxidation activity result was “CFP-T7 exhibited αFV oxidation activity and αFVH oxidation activity”. Moreover, the Specific activity (U/mg), 1 mM αF6P in series [1] came to 0 U/mg. In series [1] (scale: relative value), this protein returned a αF6P oxidation activity of 0.

B3: CFP-T7-62D (protein)
chain: B2 chain with R62D
B3: the Specific activity (U/mg), 1 mM αFVH in series [2] turned out to be 1.62 U/mg. Further, in series [1], the Specific activity (U/mg), 1 mM αF6P was 0.018 U/mg and the “specific activity on αF6P, fold over PnFX (Comparative Example 3)” value is 2 times (Amadoriase 26/Comparative Example 3).

B4: CFP-T7-H35 (protein)
chain: B2 chain with R62D, L63H, E102K, D106K, Q110L, A113K, A355S
Regarding B4, in the series with hemoglobin A1c, P68871, the “ΔA at 751 nm (hydrogen peroxide generated upon oxidation of the HbA1c β-chain amino terminus) against HbA1c concentration; heat-treated sample” value is “When Reagent C1 was used, a good correlation was established between the HbA1c concentration and ΔA”; the “ΔA at 751 nm against HbA1c concentration; acid-treated sample (Reagent D1 or D2, Reagent F1)” value is “In both cases where the sample was diluted with either Reagent D1 or Reagent D2, a good correlation was established between the HbA1c concentration and ΔA”. In series [2], the Specific activity (U/mg), 1 mM αFVH was 1.9 U/mg. Besides, in series [1], the Specific activity (U/mg), 1 mM αF6P came out at 4.27 U/mg; the “specific activity on αF6P, fold over FAOAo2 (Comparative Example 2)” value was 1.940 times (Amadoriase 25/Comparative Example 2); the αF6P oxidation activity ratio (relative value (CFP-T7-H28 = 100)) turned out to be 206.

B5: CFP-DH2 (protein)
chain: MTSNRADTRVIVVGGGGTIGSSTALHLVRSGYAPANITVLDTFPIPSAQSAGHDLNKIMGIDHRNKVNLQMSLEARQMWKEDELFQPFFHNTGRMDCEHTPKGIEKLKKLYQKLHDAGAGLEKTHAWLDNEDAILSKMPLLQRDQIQGWKAIWSQDGGWLAAAKAINAIGQFLKERGVKFGFGGAGSFKQPLFDDEGTTCIGVETADGTKYYADKVVLAAGAWSPTLVDLEDQCCSKAWVYAHIQLTPEEAAKYKGCPVVYHGEFGFFFEPDEFGVIKVCDEFPGFSRFKEHQPYGAPSPKRISVPRSHAKHPTDTYPDASEVSIKKAIATFLPRFKDKPLFNRALCWCTDTADSTLLMCEHPKWKNFILATGDSGHSFKILPNVGKYVVELIEGRLPEEMAYQWRWRPGGDALKSRRAAPPKDLADMPGWKHD
Take B5: in the series with hemoglobin A1c, P68871, the “ΔA at 751 nm against HbA1c concentration; cationic-surfactant-treated sample (Reagent G1 or G2)” value was “In both cases where the sample was diluted with either Reagent G1 or Reagent G2, a good correlation was established between the HbA1c concentration and ΔA”. Besides, the Specific activity (U/mg), 1 mM αF6P in series [1] came out at 5.3 U/mg.
